Source: publication PMC8967028

Experiments:
Assay in all cases: SPR; Biacore T200; […], single cycle kinetics, […]; 25°C; PBS, 0.05% Tween 20, 3.4 mM EDTA; 1:1 binding model; triplicate; […]
[1] = molecular target: SARS-CoV-2 B.1.351 (Beta) spike (S) receptor binding domain (SARS-CoV-2)
[2] = molecular target: SARS-CoV-2 B.1.617.2 (Delta) spike (S) receptor binding domain (SARS-CoV-2)
[3] = molecular target: SARS-CoV-2 B.1.1.529 (Omicron) spike (S) receptor binding domain (SARS-CoV-2)

## VHH-72-Fc L97W (Fc fusion)
[1]
  koff: 0.0079 s⁻¹
[2]
  koff: 0.00081 s⁻¹

## VHH-72-Fc L97W,T99V (Fc fusion)
[1]
  koff: 0.00056 s⁻¹
[3]
  koff: 0.061 s⁻¹
[2]
  koff: 0.00016 s⁻¹

## VHH-72-Fc S56M (Fc fusion)
[1]
  koff: 0.013 s⁻¹
[2]
  koff: 0.001 s⁻¹

## VHH-72-Fc S56M,L97W (Fc fusion)
[1]
  koff: 0.0025 s⁻¹
[3]
  koff: 0.7 s⁻¹
[2]
  koff: 0.00039 s⁻¹

## VHH-72-Fc S56M,L97W,T99V (Fc fusion)
[1]
  koff: 0.00039 s⁻¹
[3]
  koff: 0.007 s⁻¹
[2]
  koff: 0.00023 s⁻¹

## VHH-72-Fc S56M,T99V (Fc fusion)
[1]
  koff: 0.00068 s⁻¹
[3]
  koff: 0.0252 s⁻¹
[2]
  koff: 0.00035 s⁻¹

## VHH-72-Fc T99V (Fc fusion)
[1]
  koff: 0.0077 s⁻¹
[2]
  koff: 0.00062 s⁻¹

## parental VHH-72-Fc (Fc fusion)
[1]
  koff: 0.029 s⁻¹
[2]
  koff: 0.0051 s⁻¹
